According to patent US20130137748A1 (ONCOTHERAPY SCIENCE, published 2013):
Blank lines part the entries; values can stand above or below the binder they belong to.

How the values were obtained:
[1] = molecular target: T1, 3×FLAG-WHSC1 (Wolf-Hirschhorn syndrome candidate-1, FLAG-tagged) (human, UniProt O96028 1-1365); experiment: anti-HA immunoprecipitation from nuclear and cytoplasmic fractions of 293T cells co-transfected with HA-beta-catenin and 3×FLAG-WHSC1, then immunoblot
T1 construct: Expressed in 293T cells by transfection; also called FLAG-tagged WHSC1; pCAGGS-n3FH-WHSC1; not shown: 3×FLAG tag from the pCAGGS-n3FH / n3FC vector
T1 sequence: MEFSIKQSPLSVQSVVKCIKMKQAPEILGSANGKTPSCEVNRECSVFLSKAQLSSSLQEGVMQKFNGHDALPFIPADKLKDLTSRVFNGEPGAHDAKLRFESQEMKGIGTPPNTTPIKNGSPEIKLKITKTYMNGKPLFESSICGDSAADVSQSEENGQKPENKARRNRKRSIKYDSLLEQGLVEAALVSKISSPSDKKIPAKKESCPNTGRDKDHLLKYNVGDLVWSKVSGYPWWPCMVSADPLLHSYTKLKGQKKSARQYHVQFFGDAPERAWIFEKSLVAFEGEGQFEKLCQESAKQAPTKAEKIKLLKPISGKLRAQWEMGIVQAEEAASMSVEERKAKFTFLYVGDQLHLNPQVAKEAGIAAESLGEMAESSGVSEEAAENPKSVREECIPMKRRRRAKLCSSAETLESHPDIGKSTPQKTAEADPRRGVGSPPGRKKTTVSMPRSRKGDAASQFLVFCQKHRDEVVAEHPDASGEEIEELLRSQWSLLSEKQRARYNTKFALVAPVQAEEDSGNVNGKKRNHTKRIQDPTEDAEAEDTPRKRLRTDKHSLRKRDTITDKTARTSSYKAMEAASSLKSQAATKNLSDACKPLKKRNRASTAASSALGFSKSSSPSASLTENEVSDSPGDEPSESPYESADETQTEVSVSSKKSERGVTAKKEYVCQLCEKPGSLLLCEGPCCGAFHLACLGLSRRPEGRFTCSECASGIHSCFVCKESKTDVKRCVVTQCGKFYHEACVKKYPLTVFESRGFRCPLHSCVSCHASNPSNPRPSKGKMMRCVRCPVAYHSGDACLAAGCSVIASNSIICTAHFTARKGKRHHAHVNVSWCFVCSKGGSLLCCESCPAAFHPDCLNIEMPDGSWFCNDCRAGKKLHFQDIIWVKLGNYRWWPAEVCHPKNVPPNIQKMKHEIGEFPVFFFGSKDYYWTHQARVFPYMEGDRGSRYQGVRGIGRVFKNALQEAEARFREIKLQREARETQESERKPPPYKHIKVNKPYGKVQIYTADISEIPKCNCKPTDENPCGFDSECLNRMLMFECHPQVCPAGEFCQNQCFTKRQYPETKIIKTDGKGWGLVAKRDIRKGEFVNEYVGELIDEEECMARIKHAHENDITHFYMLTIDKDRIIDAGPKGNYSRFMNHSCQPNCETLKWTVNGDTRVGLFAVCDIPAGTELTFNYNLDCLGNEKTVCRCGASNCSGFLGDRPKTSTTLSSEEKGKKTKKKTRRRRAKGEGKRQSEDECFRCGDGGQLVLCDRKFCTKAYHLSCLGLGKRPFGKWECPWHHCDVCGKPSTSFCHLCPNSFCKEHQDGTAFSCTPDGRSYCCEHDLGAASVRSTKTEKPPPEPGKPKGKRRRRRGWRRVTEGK
Description: [FIG. 5B-D](B) Silver staining pattern of interacting proteins with WHSC1. pCAGGS-n3FH-WHSC1 vectors were transfected into 293T cells. After 48 h, interacting protein partners of WHSC1 were enriched by anti-FLAG immunoprecipitation, separated by SDS-PAGE and silver stained. The different bands compared with a control lane were cut out and identified by mass spectrometry. Western blot was performed to confirm the expression of FLAG-WHSC1 using anti-FLAG antibody. (C) Immunoprecipitants from lysates of 293T cells using anti-FLAG M2 agarose (SIGMA) were immunoblotted with anti-FLAG (WHSC1), IQGAP1, TIAM1, AKT2 and beta-catenin antibodies. (D). HA-beta-catenin and 3×FLAG-WHSC1 vectores were transfected into 293T cells, and cell lysates were fractionated by NE-PER nuclear and cytoplasmic ex-traction kit (Thermo Sciecntific). Immunoprecipitants from fractionated lysates using anti-HA agarose (SIGMA) were immunoblotted with anti-FLAG and HA antibodies. UHRF1 was used as a marker of a nuclear protein, and Rho A was used a marker of a cytoplasmic protein.

[2] = molecular target: T2, beta-catenin
T2 chain: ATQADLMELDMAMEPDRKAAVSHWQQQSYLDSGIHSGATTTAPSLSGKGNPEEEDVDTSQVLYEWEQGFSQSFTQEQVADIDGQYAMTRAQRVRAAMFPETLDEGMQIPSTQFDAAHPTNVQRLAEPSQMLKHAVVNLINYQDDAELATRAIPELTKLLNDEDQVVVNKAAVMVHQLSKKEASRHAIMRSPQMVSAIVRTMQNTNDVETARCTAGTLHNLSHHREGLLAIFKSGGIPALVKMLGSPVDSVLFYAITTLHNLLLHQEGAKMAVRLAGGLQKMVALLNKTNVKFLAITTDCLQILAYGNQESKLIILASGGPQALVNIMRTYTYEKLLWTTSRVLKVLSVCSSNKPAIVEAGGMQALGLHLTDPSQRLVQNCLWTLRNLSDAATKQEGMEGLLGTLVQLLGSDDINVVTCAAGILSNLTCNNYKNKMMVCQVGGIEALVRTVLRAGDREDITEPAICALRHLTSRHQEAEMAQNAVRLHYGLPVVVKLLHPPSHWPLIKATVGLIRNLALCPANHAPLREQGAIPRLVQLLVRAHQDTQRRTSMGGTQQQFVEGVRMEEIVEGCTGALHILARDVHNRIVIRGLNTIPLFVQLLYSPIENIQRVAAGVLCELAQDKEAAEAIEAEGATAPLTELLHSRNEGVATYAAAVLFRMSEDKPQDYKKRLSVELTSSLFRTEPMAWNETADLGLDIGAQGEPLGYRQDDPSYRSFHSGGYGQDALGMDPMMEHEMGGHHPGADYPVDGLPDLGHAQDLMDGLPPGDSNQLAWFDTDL

- binding result [1]: binds
B1: HA-beta-catenin (other)
chain: MATQADLMELDMAMEPDRKAAVSHWQQQSYLDSGIHSGATTTAPSLSGKGNPEEEDVDTSQVLYEWEQGFSQSFTQEQVADIDGQYAMTRAQRVRAAMFPETLDEGMQIPSTQFDAAHPTNVQRLAEPSQMLKHAVVNLINYQDDAELATRAIPELTKLLNDEDQVVVNKAAVMVHQLSKKEASRHAIMRSPQMVSAIVRTMQNTNDVETARCTAGTLHNLSHHREGLLAIFKSGGIPALVKMLGSPVDSVLFYAITTLHNLLLHQEGAKMAVRLAGGLQKMVALLNKTNVKFLAITTDCLQILAYGNQESKLIILASGGPQALVNIMRTYTYEKLLWTTSRVLKVLSVCSSNKPAIVEAGGMQALGLHLTDPSQRLVQNCLWTLRNLSDAATKQEGMEGLLGTLVQLLGSDDINVVTCAAGILSNLTCNNYKNKMMVCQVGGIEALVRTVLRAGDREDITEPAICALRHLTSRHQEAEMAQNAVRLHYGLPVVVKLLHPPSHWPLIKATVGLIRNLALCPANHAPLREQGAIPRLVQLLVRAHQDTQRRTSMGGTQQQFVEGVRMEEIVEGCTGALHILARDVHNRIVIRGLNTIPLFVQLLYSPIENIQRVAAGVLCELAQDKEAAEAIEAEGATAPLTELLHSRNEGVATYAAAVLFRMSEDKPQDYKKRLSVELTSSLFRTEPMAWNETADLGLDIGAQGEPLGYRQDDPSYRSFHSGGYGQDALGMDPMMEHEMGGHHPGADYPVDGLPDLGHAQDLMDGLPPGDSNQLAWFDTDL
notes: Co-transfected with 3×FLAG-WHSC1 into 293T cells and precipitated with anti-HA agarose from nuclear and cytoplasmic fractions; also called HA-tagged beta-catenin; not shown: HA tag

B2: WHSC1 (expressed from the pCAGGS-WHSC1 vector) (protein)
chain: T1 sequence
- in vitro methyltransferase assay [2]: no positive signals were observed (data not shown)
